Laboratory results published in PMC2566858 (Nucleic Acids Research, 2008).
Where two headings read alike, the source gives them in different places.

T1: rGyr_fl Y851F (full-length reverse gyrase) (Thermotoga maritima, UniProt O51934 1-1104, Y851F)
T1 sequence: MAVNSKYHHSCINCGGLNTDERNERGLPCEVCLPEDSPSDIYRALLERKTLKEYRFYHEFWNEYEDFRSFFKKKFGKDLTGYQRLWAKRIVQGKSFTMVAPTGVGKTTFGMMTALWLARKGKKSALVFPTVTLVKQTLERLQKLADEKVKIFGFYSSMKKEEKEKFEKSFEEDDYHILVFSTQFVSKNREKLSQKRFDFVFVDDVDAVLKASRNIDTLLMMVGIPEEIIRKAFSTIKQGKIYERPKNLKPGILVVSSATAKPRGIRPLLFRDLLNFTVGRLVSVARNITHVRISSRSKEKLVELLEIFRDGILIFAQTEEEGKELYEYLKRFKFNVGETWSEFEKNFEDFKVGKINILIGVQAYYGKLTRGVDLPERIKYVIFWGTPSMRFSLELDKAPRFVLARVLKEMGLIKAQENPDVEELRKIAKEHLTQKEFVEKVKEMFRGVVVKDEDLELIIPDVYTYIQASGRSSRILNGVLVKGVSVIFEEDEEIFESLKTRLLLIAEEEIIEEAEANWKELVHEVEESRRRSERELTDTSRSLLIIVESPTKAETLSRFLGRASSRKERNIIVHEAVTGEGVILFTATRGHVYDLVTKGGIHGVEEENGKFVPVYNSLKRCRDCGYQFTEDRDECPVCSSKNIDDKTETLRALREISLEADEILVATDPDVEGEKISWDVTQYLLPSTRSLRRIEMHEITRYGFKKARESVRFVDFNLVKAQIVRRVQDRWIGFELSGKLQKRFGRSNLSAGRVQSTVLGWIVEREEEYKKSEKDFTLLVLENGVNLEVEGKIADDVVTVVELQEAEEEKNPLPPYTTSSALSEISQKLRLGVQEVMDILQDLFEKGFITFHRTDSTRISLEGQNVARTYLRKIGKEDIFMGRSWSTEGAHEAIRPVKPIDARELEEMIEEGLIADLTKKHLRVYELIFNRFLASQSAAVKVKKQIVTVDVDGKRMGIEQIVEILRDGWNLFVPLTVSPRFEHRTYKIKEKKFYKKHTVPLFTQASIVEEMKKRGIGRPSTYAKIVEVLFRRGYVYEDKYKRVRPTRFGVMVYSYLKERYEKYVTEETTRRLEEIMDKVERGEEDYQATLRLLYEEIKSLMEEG

T2: rGyr_hel (reverse gyrase helicase-like domain) (Thermotoga maritima, UniProt O51934 59-541)
T2 sequence: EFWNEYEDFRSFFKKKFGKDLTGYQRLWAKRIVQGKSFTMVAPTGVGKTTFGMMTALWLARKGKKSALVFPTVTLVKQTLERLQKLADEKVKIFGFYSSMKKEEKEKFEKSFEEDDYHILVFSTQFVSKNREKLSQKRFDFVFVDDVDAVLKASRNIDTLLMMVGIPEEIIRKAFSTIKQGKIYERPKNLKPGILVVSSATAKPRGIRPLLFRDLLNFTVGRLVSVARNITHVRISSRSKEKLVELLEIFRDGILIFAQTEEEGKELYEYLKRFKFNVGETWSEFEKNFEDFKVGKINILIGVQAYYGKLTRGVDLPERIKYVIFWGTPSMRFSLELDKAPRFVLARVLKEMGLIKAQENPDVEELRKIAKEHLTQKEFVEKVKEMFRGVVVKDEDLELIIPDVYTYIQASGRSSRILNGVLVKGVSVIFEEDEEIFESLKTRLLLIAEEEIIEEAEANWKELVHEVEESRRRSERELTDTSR

B1: 60-base ssDNA (ssDNA)
DNA: AAGCCAAGCTTCTAGAGTCAGCCCGTGATATTCATTACTTCTTATCCTAGGATCCCCGTT
B2: 60 bp dsDNA (dsDNA)
DNA 1: AAGCCAAGCTTCTAGAGTCAGCCCGTGATATTCATTACTTCTTATCCTAGGATCCCCGTT
DNA 2: AACGGGGATCCTAGGATAAGAAGTAATGAATATCACGGGCTGACTCTAGAAGCTTGGCTT

Assays:
Assay in all cases: fluorescence anisotropy
[1] = biological target: T1, rGyr_fl Y851F (full-length reverse …)
[2] = biological target: T2, rGyr_hel (reverse gyrase helicase-like …)
[3] = biological target: T1, rGyr_fl Y851F (full-length reverse …); remark: listed apart in the source
[4] = biological target: T1, rGyr_fl Y851F (full-length reverse …); remark: listed apart in the source
[5] = biological target: T1, rGyr_fl Y851F (full-length reverse …); remark: listed apart in the source
[6] = biological target: T2, rGyr_hel (reverse gyrase helicase-like …); remark: listed apart in the source

Binder	Kd [1]	Kd [2]	Kd [3]	Kd [4]	Kd [5]	Kd [6]
B1	41 ± 9 nM	2900 ± 100 nM	330 ± 20 nM	46 ± 8 nM	45 ± 2 nM	310 ± 40 nM
B2	330 ± 70 nM	–	–	–	–	–
